{"source": "paper PMC9969106", "proteins": {"B1": {"name": "GlyRα1: N38Q (protein)", "parent chain": "MYSFNTLRLYLWETIVFFSLAASKEAEAARSAPKPMSPSDFLDKLMGRTSGYDARIRPNFKGPPVNVSCNIFINSFGSIAETTMDYRVNIFLRQQWNDPRLAYNEYPDDSLDLDPSMLDSIWKPDLFFANEKGAHFHEITTDNKLLRISRNGNVLYSIRITLTLACPMDLKNFPMDVQTCIMQLESFGYTMNDLIFEWQEQGAVQVADGLTLPQFILKEEKDLRYCTKHYNTGKFTCIEARFHLERQMGYYLIQMYIPSLLIVILSWISFWINMDAAPARVGLGITTVLTMTTQSSGSRASLPKVSYVKAIDIWMAVCLLFVFSALLEYAAVNFVSRQHKELLRFRRKRRHHKSPMLNLFQEDEAGEGRFNFSAYGMGPACLQAKDGISVKGANNSNTTNPPPAPSKSPEEMRKLFIQRAKKIDKISRIGFPMAFLIFNMFYWIIYKIVRREDVHNQ"}}, "settings_in_all_cases": "glycan lost; control: GlyRα1WT", "key": {"[1]": {"experiment": "whole cell fraction western blot, normalized to pan-cadherin"}, "[2]": {"experiment": "whole-cell patch-clamp, 100 μM glycine"}, "[3]": {"experiment": "whole-cell patch-clamp, saturating 1 mM glycine"}, "[4]": {"experiment": "whole-cell patch-clamp dose-response, HEK293"}}}
{"protein": "B1", "values": [{"measurement": "expression_or_secretion, other: relative expression", "setting": "[1]", "value": "no change, 0.57 ± 0.13 vs 1.0 ± 0.16, GlyRα1WT 1.0 ± 0.16; GlyRα1N38Q 0.57 ± 0.13; p = 0.1118"}, {"measurement": "other: channel current, other: current amplitude", "setting": "[2]", "value": "decreases, 1.0 ± 0.3 vs 3.6 ± 0.5"}, {"measurement": "other: channel current, other: current amplitude", "setting": "[3]", "value": "no change, 5.0 ± 0.8 vs 6.0 ± 0.6"}, {"measurement": "other: glycine potency, EC50", "setting": "[4]", "value": "decreases, 206 vs 85"}]}
